Laboratory results as given in patent US20100260668A1 (published 2010).
Where “and” joins values, the source holds several entries; their conditions need not be identical. Equal entries are not always repeated.

What was measured:
[1] = biological target: recombinant human VEGF165 (human, UniProt P15692-4 27-191); experiment: cell-based or functional assay
IGF2 [2] = biological target: T1, IGF2 (UniProt P01344 25-91, limits assumed); experiment: cell-based or functional assay
IGF1 [3] = biological target: T2, IGF1 (UniProt P05019 49-118, limits assumed); experiment: cell-based or functional assay
[4] = biological target: T3, ErbB3 (ErbB3 ECD/FC Chimera-His tag, R&D 348-RB-050) (UniProt P21860 20-643, limits assumed); experiment: direct bind ELISA, coated antigen; parent reference antibody
T3 construct: extracellular domain; Bought antigen coated on the ELISA plate

[5] = biological target: T4, VEGF (VEGF 1-165 aa, R&D Systems 293-VE-010) (UniProt P15692 27-191); experiment: Direct bind ELISA, VEGF coated on plate; VEGF domain C-term., HC short/LC long
T4 construct: bought reagent; also called vascular endothelial growth factor
T4 sequence (P15692 other isoform, or with tags, fused parts or gaps limits assumed): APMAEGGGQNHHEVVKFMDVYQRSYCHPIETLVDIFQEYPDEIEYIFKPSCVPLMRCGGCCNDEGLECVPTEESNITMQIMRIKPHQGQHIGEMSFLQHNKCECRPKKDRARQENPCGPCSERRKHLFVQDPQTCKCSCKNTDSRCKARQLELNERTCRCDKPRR

[6] = biological target: T4, VEGF (VEGF 1-165 aa, R&D Systems …); experiment: Direct bind ELISA, VEGF coated on plate; VEGF domain N-term., HC short/LC long
[7] = biological target: T4, VEGF (VEGF 1-165 aa, R&D Systems …); experiment: Direct bind ELISA, VEGF coated on plate; VEGF domain N-term., HC long/LC short
IGF2 [8] = biological target: T1, IGF2; experiment: cell-based or functional assay; remark: listed apart in the source
IGF1 [9] = biological target: T2, IGF1; experiment: cell-based or functional assay; remark: listed apart in the source
[10] = biological target: T5, insulin-like growth factor receptor (IGF1R) (human, UniProt P08069 31-1367); experiment: cell-based or functional assay
[11] = biological target: T5, insulin-like growth factor receptor …; experiment: cell-based or functional assay; remark: listed apart in the source
[12] = biological target: T5, insulin-like growth factor receptor …; experiment: cell-based or functional assay; remark: listed apart in the source

recombinant human VEGF165, sequence (P15692 other isoform, or with tags, fused parts or gaps limits assumed): as above

B1: DVD041 (bispecific antibody, human IgG1, lambda)
heavy: not shown
light: DIQMTQSPSSLSASVGDRVTITCSASQDISNYLNWYQQKPGKAPKVLIYFTSSLHSGVPSRFSGSGSGTDFTLTISSLQPEDFATYYCQQYSTVPWTFGQGTKVEIKRTVAAPQSVLTQPPSVSAAPGQKVTISCSGSSSNIENNHVSWYQQLPGTAPKLLIYDNNKRPSGIPDRFSGSKSGTSATLGITGLQTGDEADYYCETWDTSLSAGRVFGGGTKLTVLGQPKAAPSVTLFPPSSEELQANKATLVCLISDFYPGAVTVAWKADSSPVKAGVETTTPSKQSNNKYAASSYLSLTPEQWKSHRSYSCQVTHEGSTVEKTVAPTECS
A431, EGFR line proliferation inhibition IC50 [1]: > 50 nM
A431, EGFR line proliferation inhibition, max [1]: 0%
A431, EGFR line proliferation inhibition IC50 (IGF2 [2]): > 50 nM
A431, EGFR line proliferation inhibition, max (IGF2 [2]): 0%
A431, EGFR line proliferation inhibition IC50 (IGF1 [3]): > 50 nM
A431, EGFR line proliferation inhibition, max (IGF1 [3]): 0%

B2: AB063 (antibody, human IgG1, kappa, V domains shown)
VH: EVQLVESGGGLVQPGGSLRLSCAASGFTFSIYSMNWVRQAPGKGLEWVSYISSSSSTIYYADSVKGRFTISRDNAKNSLYLQMNSLRDEDTAVYYCARDRGDFDAFDIWGQGTMVTVSS
VL: DIQMTQSPSSLSASVGDRVTITCQASQDITNYLNWYQQKPGKAPKLLIYDASNLETGVPSRFSGSGSGTDFTFTISSLQPEDIATYNCQQCENFPITFGQGTRLEIKR
notes: also called AB063VH
EC50 [4]: 0.87 nM and 0.92 nM and 1.1 nM

B3: DVD507 (bispecific antibody, human IgG1, kappa, L234A L235A)
heavy: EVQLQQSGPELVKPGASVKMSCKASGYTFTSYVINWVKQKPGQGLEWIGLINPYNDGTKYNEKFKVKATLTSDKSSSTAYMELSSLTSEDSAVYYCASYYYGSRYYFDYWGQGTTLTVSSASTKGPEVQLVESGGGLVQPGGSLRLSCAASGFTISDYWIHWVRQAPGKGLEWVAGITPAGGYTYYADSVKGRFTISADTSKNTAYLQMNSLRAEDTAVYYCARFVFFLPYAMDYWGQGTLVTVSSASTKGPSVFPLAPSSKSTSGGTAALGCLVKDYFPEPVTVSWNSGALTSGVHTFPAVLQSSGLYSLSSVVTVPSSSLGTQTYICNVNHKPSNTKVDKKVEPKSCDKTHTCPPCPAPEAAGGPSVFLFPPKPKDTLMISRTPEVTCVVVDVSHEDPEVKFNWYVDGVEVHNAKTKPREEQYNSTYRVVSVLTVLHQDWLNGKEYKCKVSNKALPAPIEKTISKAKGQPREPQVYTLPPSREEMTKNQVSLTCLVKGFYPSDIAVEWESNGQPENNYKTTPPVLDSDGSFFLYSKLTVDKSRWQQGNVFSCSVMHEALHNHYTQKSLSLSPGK
light: DIQMTQSSSYLSVSLGGRVTITCKASDHINNWLAWYQQKPGNAPRLLISGATSLETGVPSRFSGSGSGKDYTLSITSLQTEDVATYYCQQYWSIPLTFGAGTKLELKRTVAAPSVFIFPPDIQMTQSPSSLSASVGDRVTITCRASQDVSTAVAWYQQKPGKAPKLLIYSASFLYSGVPSRFSGSGSGTDFTLTISSLQPEDFATYYCQQSYTTPPTFGQGTKVEIKRTVAAPSVFIFPPSDEQLKSGTASVVCLLNNFYPREAKVQWKVDNALQSGNSQESVTEQDSKDSTYSLSSTLTLSKADYEKHKVYACEVTHQGLSSPVTKSFNRGEC
notes: DVD-Ig; N-term; AB072 (DLL4), C-term; AB070 (VEGF); HC linker short, LC linker long; also called DVD-Ig DVD507; DVD507H/DVD507L
EC50 [5]: 34.9 nM

B4: DVD532 (bispecific antibody, human IgG1, kappa, lambda)
heavy: not shown
light: DIQMTQSPSSLSASVGDRVTITCRASQDVSTAVAWYQQKPGKAPKLLIYSASFLYSGVPSRFSGSGSGTDFTLTISSLQPEDFATYYCQQSYTTPPTFGQGTKVEIKRTVAAPSVFIFPPQAVVTQESALTTSPGETVTLTCRSSTGAVTTSNYANWVQEKPDHLFTGLIGGTNNRAPGVPARFSGSLIGDKAALTITGAQTEDEAIYFCALWYSNHWVFGGGTKLTVLGQPKAAPSVTLFPPSSEELQANKATLVCLISDFYPGAVTVAWKADSSPVKAGVETTTPSKQSNNKYAASSYLSLTPEQWKSHRSYSCQVTHEGSTVEKTVAPTECS
notes: DVD-Ig; N-term; AB070 (VEGF), C-term; AB073 (DLL4); HC linker short, LC linker long; also called DVD-Ig DVD532; DVD532H/DVD532L
EC50 [6]: 28.9 nM

B5: DVD510 (bispecific antibody, human IgG1, kappa)
heavy: not shown
light: DIQMTQSPSSLSASVGDRVTITCRASQVIRRSLAWYQQKPGKAPKLLIYAASNLASGVPSRFSGSGSGTDFTLTISSLQPEDFATYYCQQSNTSPLTFGQGTKVEIKRTVAAPSVFIFPPDIQMTQSSSYLSVSLGGRVTITCKASDHINNWLAWYQQKPGNAPRLLISGATSLETGVPSRFSGSGSGKDYTLSITSLQTEDVATYYCQQYWSIPLTFGAGTKLELKRTVAAPSVFIFPPSDEQLKSGTASVVCLLNNFYPREAKVQWKVDNALQSGNSQESVTEQDSKDSTYSLSSTLTLSKADYEKHKVYACEVTHQGLSSPVTKSFNRGEC
notes: DVD-Ig; N-term; AB071 (VEGF), C-term; AB072 (DLL4); HC linker short, LC linker long; also called DVD-Ig DVD510; DVD510H/DVD510L
EC50 [6]: 23.9 nM

B6: DVD531 (bispecific antibody, human IgG1, kappa, lambda)
heavy: not shown
light: QAVVTQESALTTSPGETVTLTCRSSTGAVTTSNYANWVQEKPDHLFTGLIGGTNNRAPGVPARFSGSLIGDKAALTITGAQTEDEAIYFCALWYSNHWVFGGGTKLTVLGQPKAAPSVTLFPPDIQMTQSPSSLSASVGDRVTITCRASQDVSTAVAWYQQKPGKAPKLLIYSASFLYSGVPSRFSGSGSGTDFTLTISSLQPEDFATYYCQQSYTTPPTFGQGTKVEIKRTVAAPSVFIFPPSDEQLKSGTASVVCLLNNFYPREAKVQWKVDNALQSGNSQESVTEQDSKDSTYSLSSTLTLSKADYEKHKVYACEVTHQGLSSPVTKSFNRGEC
notes: DVD-Ig; N-term; AB073 (DLL4), C-term; AB070 (VEGF); HC linker short, LC linker long; also called DVD-Ig DVD531; DVD531H/DVD531L
EC50 [5]: 60.4 nM

B7: DVD509 (bispecific antibody, human IgG1, kappa)
heavy: not shown
light: DIQMTQSSSYLSVSLGGRVTITCKASDHINNWLAWYQQKPGNAPRLLISGATSLETGVPSRFSGSGSGKDYTLSITSLQTEDVATYYCQQYWSIPLTFGAGTKLELKRTVAAPSVFIFPPDIQMTQSPSSLSASVGDRVTITCRASQVIRRSLAWYQQKPGKAPKLLIYAASNLASGVPSRFSGSGSGTDFTLTISSLQPEDFATYYCQQSNTSPLTFGQGTKVEIKRTVAAPSVFIFPPSDEQLKSGTASVVCLLNNFYPREAKVQWKVDNALQSGNSQESVTEQDSKDSTYSLSSTLTLSKADYEKHKVYACEVTHQGLSSPVTKSFNRGEC
notes: DVD-Ig; N-term; AB072 (DLL4), C-term; AB071 (VEGF); HC linker short, LC linker long; also called DVD-Ig DVD509; DVD509H/DVD509L
EC50 [5]: 121 nM

B8: AB062 (antibody, human IgG1, kappa, V domains shown)
VH: QVQLQQWGAGLLKPSETLSLTCAVYGGSFSGYYWSWIRQPPGKGLEWIGEINHSGSTNYNPSLKSRVTISVETSKNQFSLKLSSVTAADTAVYYCARDKWTWYFDLWGRGTLVTVSS
VL: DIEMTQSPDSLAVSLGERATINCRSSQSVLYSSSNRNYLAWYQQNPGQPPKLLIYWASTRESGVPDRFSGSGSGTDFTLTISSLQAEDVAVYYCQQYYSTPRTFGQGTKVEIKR
notes: also called AB062VH
EC50 [4]: 0.75 nM and 0.97 nM and 1.6 nM

B9: AB067 (antibody, human IgG1, lambda, L234A L235A, V domains shown)
VH: EVQLLESGGGLVQPGGSLRLSCAASGFTFSHYVMAWVRQAPGKGLEWVSSISSSGGWTLYADSVKGRFTISRDNSKNTLYLQMNSLRAEDTAVYYCTRGLKMATIFDYWGQGTLVTVSS
VL: QSALTQPASVSGSPGQSITISCTGTSSDVGSYNVVSWYQQHPGKAPKLIIYEVSQRPSGVSNRFSGSKSGNTASLTISGLQTEDEADYYCCSYAGSSIFVIFGGGTKVTVLG
notes: also called AB067VH
EC50 [4]: 1.78 nM and 2.2 nM and 1.12 nM

B10: DVD504 (bispecific antibody, human IgG1, kappa)
heavy: not shown
light: DIQMTQSPSSLSASVGDRVTITCRASQVIRRSLAWYQQKPGKAPKLLIYAASNLASGVPSRFSGSGSGTDFTLTISSLQPEDFATYYCQQSNTSPLTFGQGTKVEIKRTVAAPDIQMTQSSSYLSVSLGGRVTITCKASDHINNWLAWYQQKPGNAPRLLISGATSLETGVPSRFSGSGSGKDYTLSITSLQTEDVATYYCQQYWSIPLTFGAGTKLELKRTVAAPSVFIFPPSDEQLKSGTASVVCLLNNFYPREAKVQWKVDNALQSGNSQESVTEQDSKDSTYSLSSTLTLSKADYEKHKVYACEVTHQGLSSPVTKSFNRGEC
notes: DVD-Ig; N-term; AB071 (VEGF), C-term; AB072 (DLL4); HC linker long, LC linker short; also called DVD-Ig DVD504; DVD504H/DVD504L
EC50 [7]: 16.7 nM

B11: DVD502 (bispecific antibody, human IgG1, kappa)
heavy: not shown
light: DIQMTQSPSSLSASVGDRVTITCRASQDVSTAVAWYQQKPGKAPKLLIYSASFLYSGVPSRFSGSGSGTDFTLTISSLQPEDFATYYCQQSYTTPPTFGQGTKVEIKRTVAAPDIQMTQSSSYLSVSLGGRVTITCKASDHINNWLAWYQQKPGNAPRLLISGATSLETGVPSRFSGSGSGKDYTLSITSLQTEDVATYYCQQYWSIPLTFGAGTKLELKRTVAAPSVFIFPPSDEQLKSGTASVVCLLNNFYPREAKVQWKVDNALQSGNSQESVTEQDSKDSTYSLSSTLTLSKADYEKHKVYACEVTHQGLSSPVTKSFNRGEC
notes: DVD-Ig; N-term; AB070 (VEGF), C-term; AB072 (DLL4); HC linker long, LC linker short; also called DVD-Ig DVD502; DVD502H/DVD502L
EC50 [7]: 3.25 nM

B12: AB010 (antibody, human IgG1, lambda, V domains shown)
VH: QVQLVQSGAEVKKPGASVKVSCKASGYTFTSYDINWVRQATGQGLEWMGWMNPNSGNTGYAQKFQGRVTMTRNTSISTAYMELSSLRSEDTAVYYCARDPYYYYYGMDVWGQGTTVTVSS
VL: QSVLTQPPSVSAAPGQKVTISCSGSSSNIENNHVSWYQQLPGTAPKLLIYDNNKRPSGIPDRFSGSKSGTSATLGITGLQTGDEADYYCETWDTSLSAGRVFGGGTKLTVLG
A431, EGFR line proliferation inhibition IC50 (IGF2 [2]): > 67 nM
A431, EGFR line proliferation inhibition, max (IGF2 [2]): 10 % max
A431, EGFR line proliferation inhibition IC50 (IGF1 [3]): > 67 nM
A431, EGFR line proliferation inhibition, max (IGF1 [3]): 10 % max
H929, IGF1R line proliferation inhibition IC50 (IGF2 [8]): 1.6 nM
H929, IGF1R line proliferation inhibition, max (IGF2 [8]): 70 % max
H929, IGF1R line proliferation inhibition IC50 (IGF1 [9]): 1.6 nM
H929, IGF1R line proliferation inhibition, max (IGF1 [9]): 70 % max

B13: DVD508 (bispecific antibody, human IgG1, kappa)
heavy: not shown
light: DIQMTQSPSSLSASVGDRVTITCRASQDVSTAVAWYQQKPGKAPKLLIYSASFLYSGVPSRFSGSGSGTDFTLTISSLQPEDFATYYCQQSYTTPPTFGQGTKVEIKRTVAAPSVFIFPPDIQMTQSSSYLSVSLGGRVTITCKASDHINNWLAWYQQKPGNAPRLLISGATSLETGVPSRFSGSGSGKDYTLSITSLQTEDVATYYCQQYWSIPLTFGAGTKLELKRTVAAPSVFIFPPSDEQLKSGTASVVCLLNNFYPREAKVQWKVDNALQSGNSQESVTEQDSKDSTYSLSSTLTLSKADYEKHKVYACEVTHQGLSSPVTKSFNRGEC
notes: DVD-Ig; N-term; AB070 (VEGF), C-term; AB072 (DLL4); HC linker short, LC linker long; also called DVD-Ig DVD508; DVD508H/DVD508L
EC50 [6]: 7.88 nM

B14: AB011 (antibody, human IgG1, kappa, V domains shown)
VH: EVQLLESGGGLVQPGGSLRLSCTASGFTFSSYAMNWVRQAPGKGLEWVSAISGSGGTTFYADSVKGRFTISRDNSRTTLYLQMNSLRAEDTAVYYCAKDLGWSDSYYYYYGMDVWGQGTTVTVSS
VL: DIQMTQFPSSLSASVGDRVTITCRASQGIRNDLGWYQQKPGKAPKRLIYAASRLHRGVPSRFSGSGSGTEFTLTISSLQPEDFATYYCLQHNSYPCSFGQGTKLEIKR
GEO, EGFR/IGF1R line proliferation inhibition IC50 [10]: > 67 nM
GEO, EGFR/IGF1R line proliferation inhibition, max [10]: 15 % max
A431, EGFR line proliferation inhibition IC50 [11]: > 67 nM
A431, EGFR line proliferation inhibition, max [11]: 5 % max
H929, IGF1R line proliferation inhibition IC50 [12]: 0.1 nM
H929, IGF1R line proliferation inhibition, max [12]: 65 % max
